Measured values from patent publication US20210061904A1 (GMAX BIOPHARM, published 2021).
Values belong to the binder of their own block, whether it stands above or below them.

Experiments:
[1] = biological target: T1, human gastric inhibitory polypeptide receptor (hGIPR) (human, UniProt P48546 22-466); assay: FACS on CHO-DHFR-hGIPR cells, 1 µM antibody
T1 construct: also called human GIPR; CHO-DHFR-hGIPR
T1 sequence: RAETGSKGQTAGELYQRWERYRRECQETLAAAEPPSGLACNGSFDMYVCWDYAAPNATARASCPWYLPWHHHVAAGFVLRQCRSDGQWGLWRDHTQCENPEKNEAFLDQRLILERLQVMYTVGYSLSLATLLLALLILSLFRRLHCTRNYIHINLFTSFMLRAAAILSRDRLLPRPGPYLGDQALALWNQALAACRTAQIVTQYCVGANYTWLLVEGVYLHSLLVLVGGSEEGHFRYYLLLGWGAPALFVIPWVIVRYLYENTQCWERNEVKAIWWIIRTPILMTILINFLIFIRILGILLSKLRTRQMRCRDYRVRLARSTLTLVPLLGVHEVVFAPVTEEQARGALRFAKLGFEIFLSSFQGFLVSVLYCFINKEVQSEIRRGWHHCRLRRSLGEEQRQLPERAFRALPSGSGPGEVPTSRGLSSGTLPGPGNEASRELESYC
Description: PBS containing 10 mM EDTA was used to detach the CHO-DHFR-hGIPR cells and 10⁵ cells/tube was distributed into 1.5 mL EP tubes, and the supernatant was removed after centrifugation. The negative control sample was resuspended with a loading buffer (PBS, 2% FBS). For the positive control, 200 μL GIPR antibody solution of specific concentration was added to the cells and incubated at room temperature; after incubation, the cells were then centrifuged at 1500 rpm to remove the supernatant, washed with a FACS loading buffer and centrifuged again. The cells were resuspended with addition (200 μL/well) of a FITC labeled goat anti-mouse fluorescent antibody or PE labeled goat anti-human fluorescent antibody at 1:50 dilution and incubated at room temperature for 30 min in the dark. The supernatant was removed after centrifugation, and cells were washed with FACS loading buffer, centrifuged again and resuspended with the loading buffer for FACS analysis. The recombinant anti-hGIPR functional antibody specifically binds to GIPR-expressing CHO-DHFR-GIPR cells.

[2] = biological target: T2, human gastric inhibitory polypeptide receptor (hGIPR) (human) (UniProt P48546); assay: cell-based or functional assay
T2 sequence: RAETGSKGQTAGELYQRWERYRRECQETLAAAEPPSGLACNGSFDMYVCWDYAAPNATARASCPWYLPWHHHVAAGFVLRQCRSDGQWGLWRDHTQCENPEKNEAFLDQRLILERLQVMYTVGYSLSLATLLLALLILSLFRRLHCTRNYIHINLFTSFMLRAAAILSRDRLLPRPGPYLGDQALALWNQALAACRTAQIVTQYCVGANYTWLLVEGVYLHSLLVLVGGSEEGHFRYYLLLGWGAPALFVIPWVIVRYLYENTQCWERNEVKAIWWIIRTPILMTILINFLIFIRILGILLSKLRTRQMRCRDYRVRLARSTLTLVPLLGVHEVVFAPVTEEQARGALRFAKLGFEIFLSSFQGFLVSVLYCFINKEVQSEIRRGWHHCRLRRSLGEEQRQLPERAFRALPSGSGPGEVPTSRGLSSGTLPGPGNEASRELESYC

[3] = biological target: human GLP-1 receptor (hGLP-1R) (human) (UniProt P43220); assay: cell-based or functional assay
Chain of human GLP-1 receptor (hGLP-1R) (human) (P43220 24-463): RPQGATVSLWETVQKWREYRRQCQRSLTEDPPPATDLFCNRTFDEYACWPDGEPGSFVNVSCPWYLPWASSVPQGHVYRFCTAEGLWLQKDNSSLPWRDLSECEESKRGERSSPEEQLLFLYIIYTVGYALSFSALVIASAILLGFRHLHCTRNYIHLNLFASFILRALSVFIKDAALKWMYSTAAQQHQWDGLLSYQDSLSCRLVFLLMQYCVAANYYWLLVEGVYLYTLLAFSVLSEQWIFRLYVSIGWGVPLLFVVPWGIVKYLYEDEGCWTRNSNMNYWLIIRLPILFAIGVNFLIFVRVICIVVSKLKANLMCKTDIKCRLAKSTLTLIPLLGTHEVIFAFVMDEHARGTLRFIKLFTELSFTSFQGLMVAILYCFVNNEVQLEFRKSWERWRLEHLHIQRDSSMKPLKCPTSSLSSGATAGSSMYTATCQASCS

[4] = biological target: T1, human gastric inhibitory polypeptide …; assay: cell-based or functional assay

binding result [1]: binds
B1: hGIPR antibody L10H8 (antibody, V domains shown)
VH: QVQLQQSGAEVKKPGSSVKVSCKASGGTFSSYAISWVRQAPGQGLEWMGGIIPTFGTANYAQKFQGRVTITADESTSTAYMELSSLRSEDTAVYYCAQGPIVGAPTDYWGKGTLVTVSS
VL: SYVLTQPPSASGTPGQRVAISCSGSNSNIGSNTVHWYQQLPGAAPKLLIYSNNQRPSGVPDRFSGSNSGTSASLAISRLQSEDEADYYCAAWDDSLNGVVFGGGTKVTVL
notes: Recombinantly expressed complete antibody; Only the variable domains are tied to L10H8; also called Ll0H8

IC50, direct cAMP assay, antagonism of GIP (50 pM) activation of hGIPR on CHO-DHFR cells [2]: 14.9 nM | EC50, CRE-Luciferase reporter gene assay on CHO-DHFR- cells co-expressing hGLP1R [3]: 0.04 nM
B2: GIPR antibody/GLP-1 fusion protein GLP-1-Linker-L7H6 (protein, part only; not given: constant regions, not shown: a dimerising Fc or GST)
light, part: HGEGTFTSDVSSYLEGQAAKEFIAWLVKGGGGGSGGGGSGGGGSDIVLTQSPASLAVSPGQRATITCRASQSVNTAVYSYIHWYQQKPGQPPKLLIKYASNLESGVPARFSGSGSGTDFTLTINPVEANDAANYYCQHSFDFPYTFGGGTKVEIKR
heavy, part: QVQLQESGPGLVKPSQTLSLTCTVSGYSITSDYAWNWIRQPPGKGVEWMGYISYRGIATYKPSLKSRITISRDTSKNQFSLKLSSVTAADTAVYYCVRGEYGPGNFDFWGQGTTVTVSS

IC50, direct cAMP assay, antagonism of GIP (50 pM) activation of hGIPR on CHO-DHFR cells [4]: 7.6 nM
B3: hGIPR antibody L7H6 (antibody, V domains shown)
VH: QVQLQESGPGLVKPSQTLSLTCTVSGYSITSDYAWNWIRQPPGKGVEWMGYISYRGIATYKPSLKSRITISRDTSKNQFSLKLSSVTAADTAVYYCVRGEYGPGNFDFWGQGTTVTVSS
VL: DIVLTQSPASLAVSPGQRATITCRASQSVNTAVYSYIHWYQQKPGQPPKLLIKYASNLESGVPARFSGSGSGTDFTLTINPVEANDAANYYCQHSFDFPYTFGGGTKVEIKR
